Data: article PMC5999986

Biological target: DosR (DosRwt) (Mycobacterium tuberculosis, UniProt P9WMF9 1-217)
Assay: EMSA; 4, 8, 16 uM protein; 20 mM MgCl2; […]; ITC: 20 mM Tris pH 8.0, 200 mM NaCl, 25 C, […]
Conditions: protein: recombinant; tags: His6 (N-terminal from pET28a NdeI/HindIII; C-terminal His6 encoded by primer PTD2 in pT7-dosR); chain copies: 2; label: none (ethidium bromide stain); blunt

B1: 20-bp DosR regulon consensus DNA (EM1/EM2) (dsDNA)
DNA 1: TTGGGGACTAAAGTCCCTAA
DNA 2: TTAGGGACTTTAGTCCCCAA
B1: binds.
